Data reported in patent US20250034271A1 (EUCURE BEIJING BIOPHARMA, published 2025).

The binders below were run against T1, Histidine-tagged human CD40 protein (hCD40-His) (human, UniProt P25942 21-193) (assay: SPR, Biacore T200; antibody on Protein A chip, hCD40-His injected; 1:1 fit).
T1 construct: not shown: histidine tag
Protocol: The binding affinity of the anti-hCD40 antibodies were measured using surface plasmon resonance (SPR) using Biacore (Biacore, INC, Piscataway N.J.) T200 biosensor equipped with pre-immobilized Protein A sensor chips.
Anti-hCD40 antibodies were collected by transfecting CHO-S cells and then purified. The antibodies (1 μg/mL) were injected into Biacore T200 biosensor at 10 μL/min for about 24-33 seconds to achieve to a desired protein density (about 44-57 response units (RU)). […] Dissociation was monitored for 300 seconds. The chip was regenerated after the last injection of each titration with Glycine (pH 2.0, 30 μL/min for 12 seconds).

T1 sequence (P25942 21-193 limits assumed): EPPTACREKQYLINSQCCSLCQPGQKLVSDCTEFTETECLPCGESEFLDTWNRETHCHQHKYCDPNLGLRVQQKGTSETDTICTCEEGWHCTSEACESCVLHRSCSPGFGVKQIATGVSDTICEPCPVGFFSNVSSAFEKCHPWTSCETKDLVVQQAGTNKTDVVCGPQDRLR

| Binder | Kd | koff | kon |
| --- | --- | --- | --- |
| 6A7-H2K2-IgG4 (antibody, V domains shown, Humanized) VH: QVQLVQSGAEVKKPGASVKVSCKASGYTFISYYIYWVRQAPGQGLEWIGGINPRNGGTNFNEKFKSRATLTVDTSISTAYMELSRLRSEDTAVYYCARHGNGVYWGQGTTVTVSS VL: DVVMTQSPLSLPVTLGQPASISCRSSQSLLHSNGNTYLHWYQQRPGQSPNHLIYQVSNRFSGVPDRFSGSGSGTDFTLKISRVEAEDVGVYFCSQTTHVPWTFGGGTKVEIK | 189 nM | 0.00496 s⁻¹ | 26300 M⁻¹ s⁻¹ |
| 6A7-H2K1-IgG4 (antibody, V domains shown, Humanized) VH: QVQLVQSGAEVKKPGASVKVSCKASGYTFISYYIYWVRQAPGQGLEWIGGINPRNGGTNFNEKFKSRATLTVDTSISTAYMELSRLRSEDTAVYYCARHGNGVYWGQGTTVTVSS VL: DVVMTQSPLSLPVTLGQPASISCRSSQSLLHSNGNTYLHWFQQRPGQSPRHLIYQVSNRFSGVPDRFSGSGSGTDFTLKISRVEAEDVGVYYCSQTTHVPWTFGGGTKVEIK | 298 nM | 0.00708 s⁻¹ | 23700 M⁻¹ s⁻¹ |
| 6A7-H1K1-IgG4 (antibody, V domains shown, Humanized) VH: QVQLVQSGAEVKKPGASVKVSCKASGYTFISYYIYWVRQAPGQGLEWMGGINPRNGGTNFNEKFKSRVTLTVDTSISTAYMELSRLRSEDTAVYYCARHGNGVYWGQGTTVTVSS VL: DVVMTQSPLSLPVTLGQPASISCRSSQSLLHSNGNTYLHWFQQRPGQSPRHLIYQVSNRFSGVPDRFSGSGSGTDFTLKISRVEAEDVGVYYCSQTTHVPWTFGGGTKVEIK | 280 nM | 0.00571 s⁻¹ | 20400 M⁻¹ s⁻¹ |
| 7F10-H1K4-IgG4 (antibody, V domains shown, Humanized) VH: EVQLVESGGGLVQPGGSLRLSCATSGFTFSDYYMYWVRQAPGKRLEWVAYISYGGDSTFYPDTVRGRFTISRDNAKNSLYLQMNSLRAEDTAVYYCARPAPSAHSYYLDYWGQGTLLTVSS VL: DIQMTQSTSSLSASVGDRVTITCRASQDISNYLNWYQQKPDGTVKLLIYYTSRLHSGLPSRFSGSGSGTDYTLTISSLQQEDIATYYCQQGKTLPFTFASGTKLEIK | 278 nM | 0.0321 s⁻¹ | 115000 M⁻¹ s⁻¹ |
| 7F10-H2K2-IgG4 (antibody, V domains shown, Humanized) VH: EVQLVESGGGLVQPGGSLRLSCATSGFTFSDYYMYWVRQAPGKRLEWVAYISYGGDSTFYPDTVRGRFTISRDNAKNSLYLQMSSLKAEDTAVYYCARPAPSAHSYYLDYWGQGTLLTVSS VL: DIQMTQSPSSLSASVGDRVTITCRASQDISNYLNWYQQKPGGAVKLLIYYTSRLHSGLPSRFSGSGSGTDYTFTISSLQPEDIATYYCQQGKTLPFTFASGTKLEIK | 505 nM | 0.0534 s⁻¹ | 106000 M⁻¹ s⁻¹ |
| 7F10-H3K1-IgG4 (antibody, V domains shown, Humanized) VH: EVKLVESGGGLVQPGGSLRLSCATSGFTFSDYYMYWVRQAPEKRLEWVAYISYGGDSTFYPDTVRGRFTISRDNAKNALYLQMSRLKAEDTAVYYCARPAPSAHSYYLDYWGQGTTLTVSS VL: DIQMTQSPSSLSASVGDRVTITCRASQDISNYLNWYQQKPGGAVKLLIYYTSRLHSGLPSRFSGSGSGTDFTFTISSLQPEDIATYYCQQGKTLPFTFASGTKLEIK | 430 nM | 0.0568 s⁻¹ | 132000 M⁻¹ s⁻¹ |
| 7F10-H3K3-IgG4 (antibody, V domains shown, Humanized) VH: EVKLVESGGGLVQPGGSLRLSCATSGFTFSDYYMYWVRQAPEKRLEWVAYISYGGDSTFYPDTVRGRFTISRDNAKNALYLQMSRLKAEDTAVYYCARPAPSAHSYYLDYWGQGTTLTVSS VL: DIQMTQSTSSLSASVGDRVTITCRASQDISNYLNWYQQKPGGAVKLLIYYTSRLHSGLPSRFSGSGSGTDYTLTISSLQQEDIATYYCQQGKTLPFTFASGTKLEIK | 238 nM | 0.0314 s⁻¹ | 132000 M⁻¹ s⁻¹ |
| 7F10-H3K2-IgG4 (antibody, V domains shown, Humanized) VH: EVKLVESGGGLVQPGGSLRLSCATSGFTFSDYYMYWVRQAPEKRLEWVAYISYGGDSTFYPDTVRGRFTISRDNAKNALYLQMSRLKAEDTAVYYCARPAPSAHSYYLDYWGQGTTLTVSS VL: DIQMTQSPSSLSASVGDRVTITCRASQDISNYLNWYQQKPGGAVKLLIYYTSRLHSGLPSRFSGSGSGTDYTFTISSLQPEDIATYYCQQGKTLPFTFASGTKLEIK | 380 nM | 0.0482 s⁻¹ | 127000 M⁻¹ s⁻¹ |
| 7F10-H2K1-IgG4 (antibody, V domains shown, Humanized) VH: EVQLVESGGGLVQPGGSLRLSCATSGFTFSDYYMYWVRQAPGKRLEWVAYISYGGDSTFYPDTVRGRFTISRDNAKNSLYLQMSSLKAEDTAVYYCARPAPSAHSYYLDYWGQGTLLTVSS VL: DIQMTQSPSSLSASVGDRVTITCRASQDISNYLNWYQQKPGGAVKLLIYYTSRLHSGLPSRFSGSGSGTDFTFTISSLQPEDIATYYCQQGKTLPFTFASGTKLEIK | 540 nM | 0.065 s⁻¹ | 120000 M⁻¹ s⁻¹ |

Further binders by falling Kd, results first:

| Kd | koff | kon | Binder |
| --- | --- | --- | --- |
| 202 nM | 0.038 s⁻¹ | 188000 M⁻¹ s⁻¹ | 7F10-H2K4-IgG4 (antibody, V domains shown, Humanized) VH: EVQLVESGGGLVQPGGSLRLSCATSGFTFSDYYMYWVRQAPGKRLEWVAYISYGGDSTFYPDTVRGRFTISRDNAKNSLYLQMSSLKAEDTAVYYCARPAPSAHSYYLDYWGQGTLLTVSS VL: DIQMTQSTSSLSASVGDRVTITCRASQDISNYLNWYQQKPDGTVKLLIYYTSRLHSGLPSRFSGSGSGTDYTLTISSLQQEDIATYYCQQGKTLPFTFASGTKLEIK |
| 187 nM | 0.00386 s⁻¹ | 20600 M⁻¹ s⁻¹ | 6A7-H1K2-IgG4 (antibody, V domains shown, Humanized) VH: QVQLVQSGAEVKKPGASVKVSCKASGYTFISYYIYWVRQAPGQGLEWMGGINPRNGGTNFNEKFKSRVTLTVDTSISTAYMELSRLRSEDTAVYYCARHGNGVYWGQGTTVTVSS VL: DVVMTQSPLSLPVTLGQPASISCRSSQSLLHSNGNTYLHWYQQRPGQSPNHLIYQVSNRFSGVPDRFSGSGSGTDFTLKISRVEAEDVGVYFCSQTTHVPWTFGGGTKVEIK |
| 184 nM | 0.0274 s⁻¹ | 149000 M⁻¹ s⁻¹ | 7F10-H3K4-IgG4 (antibody, V domains shown, Humanized) VH: EVKLVESGGGLVQPGGSLRLSCATSGFTFSDYYMYWVRQAPEKRLEWVAYISYGGDSTFYPDTVRGRFTISRDNAKNALYLQMSRLKAEDTAVYYCARPAPSAHSYYLDYWGQGTTLTVSS VL: DIQMTQSTSSLSASVGDRVTITCRASQDISNYLNWYQQKPDGTVKLLIYYTSRLHSGLPSRFSGSGSGTDYTLTISSLQQEDIATYYCQQGKTLPFTFASGTKLEIK |
| 136 nM | 0.0039 s⁻¹ | 28700 M⁻¹ s⁻¹ | 6A7-H1K3-IgG4 (antibody, V domains shown, Humanized) VH: QVQLVQSGAEVKKPGASVKVSCKASGYTFISYYIYWVRQAPGQGLEWMGGINPRNGGTNFNEKFKSRVTLTVDTSISTAYMELSRLRSEDTAVYYCARHGNGVYWGQGTTVTVSS VL: DVVMTQSPLSLPVTLGDPASISCRSSQSLLHSNGNTYLHWYQQRPGQSPNHLIYQVSNRFSGVPDRFSGSGSGTDFTLKISRVEAEDVGVYFCSQTTHVPWTFGGGTKLEIK |
| 2.6 nM | 0.000259 s⁻¹ | 99400 M⁻¹ s⁻¹ | 6A7-mHvKv-IgG4 (antibody, V domains shown, Chimeric; also called chimeric anti-hCD40 antibody 6A7-mHvKv-IgG4) VH: QVQLQQPGAELVKPGASVKLSCKASGYTFISYYIYWVKQRPGQGLEWIGGINPRNGGTNFNEKFKSKATLTVDKSSSTAYMQLSSLTSEDSAVYYCTRHGNGVYWGQGTTLTVSS VL: DVVMTQTPLSLPVSLGDQASISCRSSQSLLHSNGNTYLHWYLQKPGQSPNHLIYQVSNRFSGVPDRFSGSGSGTDFTLKISRVEAEDLGVYFCSQTTHVPWTFGGGTKLEIK |
